pKd data for five molecules are collected here from article PMC9482650, “Quantitative fragmentomics allow affinity mapping of interactomes” (Nature Communications, 2022).

The term pKd denotes the Kd on a negative log10 scale, so that one unit is a factor of ten.

Some targets named below: Inadl_4, Q8NI35; TJP1_2, Q07157; GORASP2, Q9H8Y8; GRIP2_5, Q9C0E4; AHNAK1, Q09666; HTRA2, O43464; GRIP2_3, Q9C0E4; DLG2_3, Q15700.
Common to all, as to test: holdup assay
Holding throughout (set-up): key: below the threshold = too weak to quantify, mostly under pKd 3.1 to 4

A further assay concerns the target T1, CARD11, Q9BXL7.
T1 sequence (Q9BXL7 662-765, limits assumed, looked up): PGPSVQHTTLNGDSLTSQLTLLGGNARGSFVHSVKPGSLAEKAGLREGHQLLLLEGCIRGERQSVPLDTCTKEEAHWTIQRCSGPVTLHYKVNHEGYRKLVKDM

The next assay has as its target T2, GRIP1_3, Q9Y3R0.
T2 sequence (Q9Y3R0 247-346, limits assumed, looked up): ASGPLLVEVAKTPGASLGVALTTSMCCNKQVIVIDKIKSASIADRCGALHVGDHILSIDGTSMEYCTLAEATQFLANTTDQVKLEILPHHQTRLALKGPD

The target of another assay is T3, TJP3_3, O95049.
T3 sequence (O95049 375-456, limits assumed, looked up): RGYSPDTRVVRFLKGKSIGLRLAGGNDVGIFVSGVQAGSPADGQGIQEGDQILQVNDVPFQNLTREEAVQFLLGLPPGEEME

A further assay concerns the target T4, MPDZ_10, O75970.
T4 sequence (O75970 1624-1722, limits assumed, looked up): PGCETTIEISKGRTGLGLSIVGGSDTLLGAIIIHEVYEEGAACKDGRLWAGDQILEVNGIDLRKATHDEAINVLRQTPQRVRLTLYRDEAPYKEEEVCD

A further assay deals with T5, TX1BP3, O14907.
T5 sequence (O14907 10-122, limits assumed, looked up): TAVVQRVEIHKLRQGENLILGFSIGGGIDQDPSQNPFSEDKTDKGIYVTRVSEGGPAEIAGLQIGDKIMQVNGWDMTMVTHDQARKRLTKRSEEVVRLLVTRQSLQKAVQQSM

Another assay has as its target T6, MPP6, Q9NZW5.
T6 sequence (Q9NZW5 125-219, limits assumed, looked up): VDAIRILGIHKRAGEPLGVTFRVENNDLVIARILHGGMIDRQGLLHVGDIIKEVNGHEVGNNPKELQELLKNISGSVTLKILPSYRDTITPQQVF

In another assay the target is T7, APBA1_1, Q02410.
T7 sequence (Q02410 651-752, limits assumed, looked up): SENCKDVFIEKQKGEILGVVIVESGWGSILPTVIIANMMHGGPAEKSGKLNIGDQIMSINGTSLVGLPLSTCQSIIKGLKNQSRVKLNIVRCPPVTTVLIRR

A further assay deals with T8, GRIP1_2, Q9Y3R0.
T8 sequence (Q9Y3R0 145-248, limits assumed, looked up): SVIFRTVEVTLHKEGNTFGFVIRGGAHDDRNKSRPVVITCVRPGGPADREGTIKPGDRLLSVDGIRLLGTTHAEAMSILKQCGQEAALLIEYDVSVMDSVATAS

For another assay, the target named is T9, SIPA1L2, Q9P2F8.
T9 sequence (Q9P2F8 945-1036, limits assumed, looked up): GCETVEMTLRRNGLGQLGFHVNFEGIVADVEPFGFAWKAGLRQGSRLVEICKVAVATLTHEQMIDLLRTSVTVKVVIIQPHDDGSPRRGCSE

For a further assay, the target named is T10, GRIP1_5, Q9Y3R0.
T10 sequence (Q9Y3R0 568-668, limits assumed, looked up): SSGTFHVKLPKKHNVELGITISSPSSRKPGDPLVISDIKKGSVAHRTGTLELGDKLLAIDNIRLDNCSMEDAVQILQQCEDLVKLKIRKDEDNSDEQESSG

The target of the next assay is T11, PTPN13_1, Q12923.
T11 sequence (Q12923 1088-1188, limits assumed, looked up): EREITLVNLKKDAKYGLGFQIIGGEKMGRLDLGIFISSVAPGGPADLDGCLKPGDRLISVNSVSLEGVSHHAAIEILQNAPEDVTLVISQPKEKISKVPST

The target of a further assay is T12, DFNB31_2, Q9P202.
T12 sequence (Q9P202 274-371, limits assumed, looked up): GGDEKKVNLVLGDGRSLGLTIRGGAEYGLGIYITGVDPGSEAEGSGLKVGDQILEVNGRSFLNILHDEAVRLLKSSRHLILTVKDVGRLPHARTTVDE

The target in another assay is T13, SNTA1, Q13424.
T13 sequence (Q13424 82-180, limits assumed, looked up): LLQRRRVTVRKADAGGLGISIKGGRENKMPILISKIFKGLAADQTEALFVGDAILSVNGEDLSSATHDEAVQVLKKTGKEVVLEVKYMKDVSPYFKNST

Another assay addresses T14, LNX2_2, Q8N448.
T14 sequence (Q8N448 334-432, limits assumed, looked up): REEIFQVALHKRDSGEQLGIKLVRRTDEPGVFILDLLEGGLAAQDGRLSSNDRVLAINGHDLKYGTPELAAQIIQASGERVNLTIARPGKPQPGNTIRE

Where [1] appears, read: plain residues with an end cap or a label only (N-terminal biotin on a linker: ttds).
[2] abbreviates: plain residues with an end cap or a label only (N-terminal biotin on a linker: ahx).
[3] abbreviates: plain residues with an end cap or a label only (N-terminal biotin on a linker: ado-ado).

Chain of AHNAK1, Q09666 (Q09666 4-100): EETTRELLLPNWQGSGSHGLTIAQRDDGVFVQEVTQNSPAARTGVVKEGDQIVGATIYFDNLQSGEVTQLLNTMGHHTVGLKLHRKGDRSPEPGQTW
Chain of Inadl_4, Q8NI35 (Q8NI35 547-651): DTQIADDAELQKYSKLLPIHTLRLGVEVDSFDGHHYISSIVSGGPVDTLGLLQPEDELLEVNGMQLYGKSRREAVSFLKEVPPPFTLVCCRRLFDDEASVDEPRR
Chain of GRIP2_3, Q9C0E4 (Q9C0E4 238-339): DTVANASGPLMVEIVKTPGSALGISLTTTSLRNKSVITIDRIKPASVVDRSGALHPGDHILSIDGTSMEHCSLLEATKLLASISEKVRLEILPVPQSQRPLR
Chain of HTRA2, O43464 (O43464 355-458): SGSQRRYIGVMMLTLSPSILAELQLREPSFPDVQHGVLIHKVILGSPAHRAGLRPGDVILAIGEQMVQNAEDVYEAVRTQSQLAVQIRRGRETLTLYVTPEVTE
Chain of GRIP2_5, Q9C0E4 (Q9C0E4 544-642): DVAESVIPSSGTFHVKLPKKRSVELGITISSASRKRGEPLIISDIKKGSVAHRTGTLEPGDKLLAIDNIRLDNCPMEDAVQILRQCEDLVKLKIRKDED
Chain of TJP1_2, Q07157 (Q07157 181-274): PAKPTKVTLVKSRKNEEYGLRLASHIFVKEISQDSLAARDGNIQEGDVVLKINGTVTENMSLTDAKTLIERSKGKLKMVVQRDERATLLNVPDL

B1: ABRAXAS2, Q15018 (peptide)
chain: DPRNTQTSQI
With B1, the pKd result with Inadl_4, Q8NI35 (setting [1]) is “below the threshold”; with TJP1_2, Q07157 (setting [1]), “below the threshold”; with CARD11, Q9BXL7 (setting [1]), “below the threshold”; in the assay with GRIP1_3, Q9Y3R0 (setting [1]), “below the threshold”; with TJP3_3, O95049 (setting [1]) it was “below the threshold”; with MPDZ_10, O75970 (setting [1]) it was “below the threshold”. Besides, the pKd was 3.71 in the assay with TX1BP3, O14907 (setting [1]); “below the threshold” with MPP6, Q9NZW5 (setting [1]); “below the threshold” with APBA1_1, Q02410 (setting [1]); “below the threshold” with GORASP2, Q9H8Y8 (setting [1]); “below the threshold” with GRIP2_5, Q9C0E4 (setting [1]); 3.57 with GRIP1_2, Q9Y3R0 (setting [1]). Moreover, the pKd is 3.53 with AHNAK1, Q09666 (setting [1]); “below the threshold” with SIPA1L2, Q9P2F8 (setting [1]); 3.66 with GRIP1_5, Q9Y3R0 (setting [1]); “below the threshold” with PTPN13_1, Q12923 (setting [1]); “below the threshold” with HTRA2, O43464 (setting [1]); 3.62 with DFNB31_2, Q9P202 (setting [1]). For the same molecule, the pKd with GRIP2_3, Q9C0E4 (setting [1]) is 3.6; in the assay with SNTA1, Q13424 (setting [1]), “below the threshold”; in the assay with LNX2_2, Q8N448 (setting [1]), “below the threshold”; with DLG2_3, Q15700 (setting [1]), 3.53.

B2: TMEM215, Q68D42 (peptide)
chain: QGRWDHETIV
Take B2: the pKd result was “below the threshold” in the assay with Inadl_4, Q8NI35 (setting [2]); 3.5 in the assay with TJP1_2, Q07157 (setting [2]); “below the threshold” with CARD11, Q9BXL7 (setting [2]); “below the threshold” with GRIP1_3, Q9Y3R0 (setting [2]); 3.62 with TJP3_3, O95049 (setting [2]); “below the threshold” with MPDZ_10, O75970 (setting [2]). Further, the pKd is 4.31 with TX1BP3, O14907 (setting [2]); “below the threshold” with MPP6, Q9NZW5 (setting [2]); “below the threshold” with APBA1_1, Q02410 (setting [2]); 4.3 with GORASP2, Q9H8Y8 (setting [2]); “below the threshold” in the assay with GRIP2_5, Q9C0E4 (setting [2]); “below the threshold” with GRIP1_2, Q9Y3R0 (setting [2]). The pKd with AHNAK1, Q09666 (setting [2]) was 3.64; with SIPA1L2, Q9P2F8 (setting [2]), “below the threshold”; with GRIP1_5, Q9Y3R0 (setting [2]) it was 3.55; with PTPN13_1, Q12923 (setting [2]), “below the threshold”; with HTRA2, O43464 (setting [2]), 3.68; in the assay with DFNB31_2, Q9P202 (setting [2]) it was “below the threshold”. Also, the pKd entry with GRIP2_3, Q9C0E4 (setting [2]) was “below the threshold”; in the assay with SNTA1, Q13424 (setting [2]) it was 5.28; with LNX2_2, Q8N448 (setting [2]) it was 5.07; in the assay with DLG2_3, Q15700 (setting [2]), 4.53.

B3: HPV51-E6, P26554 (peptide)
chain: RTRQRNETQV
Take B3: the pKd result with Inadl_4, Q8NI35 (setting [1]) was “below the threshold”; with TJP1_2, Q07157 (setting [1]) it was “below the threshold”; with CARD11, Q9BXL7 (setting [1]), “below the threshold”; with GRIP1_3, Q9Y3R0 (setting [1]) it was “below the threshold”; in the assay with TJP3_3, O95049 (setting [1]), “below the threshold”; in the assay with MPDZ_10, O75970 (setting [1]), “below the threshold”. Also, the pKd was 4.13 in the assay with TX1BP3, O14907 (setting [1]); “below the threshold” with MPP6, Q9NZW5 (setting [1]); “below the threshold” with APBA1_1, Q02410 (setting [1]); 4.65 with GORASP2, Q9H8Y8 (setting [1]); “below the threshold” with GRIP2_5, Q9C0E4 (setting [1]); 3.46 with GRIP1_2, Q9Y3R0 (setting [1]). Besides, the pKd entry in the assay with AHNAK1, Q09666 (setting [1]) is “below the threshold”; with SIPA1L2, Q9P2F8 (setting [1]), “below the threshold”; with GRIP1_5, Q9Y3R0 (setting [1]), “below the threshold”; with PTPN13_1, Q12923 (setting [1]), “below the threshold”; in the assay with HTRA2, O43464 (setting [1]) it was “below the threshold”; with DFNB31_2, Q9P202 (setting [1]), “below the threshold”. For the same molecule, the pKd result with GRIP2_3, Q9C0E4 (setting [1]) was “below the threshold”; in the assay with SNTA1, Q13424 (setting [1]), 4.23; in the assay with LNX2_2, Q8N448 (setting [1]) it was 3.61; with DLG2_3, Q15700 (setting [1]) it was 4.75.

B4: SLC23A1, Q9UHI7 (peptide)
chain: TETASVCTKV
With B4, the pKd entry with Inadl_4, Q8NI35 (setting [3]) is “below the threshold”; with TJP1_2, Q07157 (setting [3]) it was 3.5; with CARD11, Q9BXL7 (setting [3]) it was “below the threshold”; with GRIP1_3, Q9Y3R0 (setting [3]), “below the threshold”; with TJP3_3, O95049 (setting [3]), “below the threshold”; with MPDZ_10, O75970 (setting [3]), 3.73. The negative-log Kd (pKd) with TX1BP3, O14907 (setting [3]) was 3.76; with MPP6, Q9NZW5 (setting [3]) it was 3.87; in the assay with APBA1_1, Q02410 (setting [3]) it was “below the threshold”; in the assay with GORASP2, Q9H8Y8 (setting [3]), 4.17; with GRIP2_5, Q9C0E4 (setting [3]), “below the threshold”; in the assay with GRIP1_2, Q9Y3R0 (setting [3]), “below the threshold”. Also, the pKd result with AHNAK1, Q09666 (setting [3]) is “below the threshold”; in the assay with SIPA1L2, Q9P2F8 (setting [3]), “below the threshold”; with GRIP1_5, Q9Y3R0 (setting [3]) it was “below the threshold”; with PTPN13_1, Q12923 (setting [3]), “below the threshold”; with HTRA2, O43464 (setting [3]) it was “below the threshold”; in the assay with DFNB31_2, Q9P202 (setting [3]), “below the threshold”. Further, the pKd result is “below the threshold” with GRIP2_3, Q9C0E4 (setting [3]); 4 with SNTA1, Q13424 (setting [3]); 3.91 with LNX2_2, Q8N448 (setting [3]); “below the threshold” with DLG2_3, Q15700 (setting [3]).

B5: CES2, O00748 (peptide)
chain: EEPEERHTEL
As to B5, the pKd result with Inadl_4, Q8NI35 (setting [3]) is “below the threshold”; with TJP1_2, Q07157 (setting [3]), “below the threshold”; with CARD11, Q9BXL7 (setting [3]), “below the threshold”; with GRIP1_3, Q9Y3R0 (setting [3]), “below the threshold”; in the assay with TJP3_3, O95049 (setting [3]), “below the threshold”; in the assay with MPDZ_10, O75970 (setting [3]), “below the threshold”. Further, the pKd entry is reported as “below the threshold” with TX1BP3, O14907 (setting [3]); “below the threshold” with MPP6, Q9NZW5 (setting [3]); “below the threshold” with APBA1_1, Q02410 (setting [3]); “below the threshold” with GORASP2, Q9H8Y8 (setting [3]); “below the threshold” with GRIP2_5, Q9C0E4 (setting [3]); “below the threshold” with GRIP1_2, Q9Y3R0 (setting [3]). Moreover, the pKd entry with AHNAK1, Q09666 (setting [3]) is given as “below the threshold”; in the assay with SIPA1L2, Q9P2F8 (setting [3]) it was “below the threshold”; with GRIP1_5, Q9Y3R0 (setting [3]) it was “below the threshold”; with PTPN13_1, Q12923 (setting [3]), “below the threshold”; with HTRA2, O43464 (setting [3]), “below the threshold”; with DFNB31_2, Q9P202 (setting [3]), “below the threshold”. Also, the pKd result in the assay with GRIP2_3, Q9C0E4 (setting [3]) is “below the threshold”; with SNTA1, Q13424 (setting [3]) it was 4.68; with LNX2_2, Q8N448 (setting [3]), “below the threshold”; with DLG2_3, Q15700 (setting [3]) it was 3.78.
